Experimental findings from patent KR20230083068A (dated 2023) are described below.

What is called EC50 is the concentration giving half of the maximal effect. A low value points to greater potency.

Experiment [1] concerns the target T1, 비오틴 펩타이드-6xHis-tagged HCoV-OC43 N 단백질 (HCoV-OC43 N 단백질-Bio-His6) (HCoV-OC43, UniProt P33469 1-448).
T1 chain: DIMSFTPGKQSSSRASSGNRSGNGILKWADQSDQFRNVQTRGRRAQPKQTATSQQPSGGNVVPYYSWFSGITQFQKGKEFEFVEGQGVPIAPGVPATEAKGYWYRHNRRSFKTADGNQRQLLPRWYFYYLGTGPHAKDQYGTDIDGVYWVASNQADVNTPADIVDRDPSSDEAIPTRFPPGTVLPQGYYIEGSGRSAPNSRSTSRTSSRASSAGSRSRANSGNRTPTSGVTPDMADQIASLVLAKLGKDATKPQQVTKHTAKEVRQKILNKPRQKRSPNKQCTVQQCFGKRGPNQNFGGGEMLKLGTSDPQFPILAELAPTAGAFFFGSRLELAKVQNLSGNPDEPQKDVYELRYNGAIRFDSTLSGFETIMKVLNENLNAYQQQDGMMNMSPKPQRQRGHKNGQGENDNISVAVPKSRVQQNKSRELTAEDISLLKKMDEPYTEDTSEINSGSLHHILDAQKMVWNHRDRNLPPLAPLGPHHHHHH

In experiment [2] the target is MERS-CoV N 단백질 (MERS-CoV 감염 Vero 세포 용해물) (MERS-CoV, UniProt K9N4V7 1-411). Kind of experiment: western blot of infected Vero cell lysates.
For experiment [3], the target named is SARS-CoV-2 N 단백질 (SARS-CoV-2 감염 Vero 세포 용해물) (SARS-CoV-2, UniProt P0DTC9 1-419). Kind of experiment: western blot of infected Vero cell lysates. In general terms: In western blotting, separated proteins are transferred to a membrane and probed.

B1: 항-HCoV-OC43 N 단백질 특이적 단클론 항체 (클론 1C7D7 mAb) (antibody, V domains shown)
VH: EVKLEQSGGGLVKPGGSLKLSCAASGFSFSSHTMSWVRQTPEKRLEWVATITSGGTYTYYPDSVKGRFTISRDNAKNTLYLQMTSLKSEDTAMYYCTRGQEADGYYVPFAYWGQGTLVTVSA
VL: DIVMTQSPSSLAVSVGEKVTMSCKSSQSLLYSSNQKNYLAWYQQKPGQSPKLLIFWASTRESGVPDRFTGSGSGTDFTLTISSVQAEDLAVYYCKQSYNLRTFGGGTKLEIKR
notes: also called anti-HCoV-OC43 N monoclonal antibody
With B1, the EC50 in experiment [1] was ~1.2 nM. The binding result in experiment [2] and in experiment [3] was “no binding” in each case.
